From PMC6778226 (Proceedings of the National Academy of Sciences of the …, 2019)
Where two headings read alike, the source gives them in different places.

Tests used:
[1] = target: T1, voltage-dependent anion channel 1 (human, UniProt P21796 1-283, amine reactive RED-NHS NT-647 dye (for MST)); test: MST
[2] = target: T1, voltage-dependent anion channel 1; test: MST; remark: listed apart in the source

T1 sequence (P21796 whole entry): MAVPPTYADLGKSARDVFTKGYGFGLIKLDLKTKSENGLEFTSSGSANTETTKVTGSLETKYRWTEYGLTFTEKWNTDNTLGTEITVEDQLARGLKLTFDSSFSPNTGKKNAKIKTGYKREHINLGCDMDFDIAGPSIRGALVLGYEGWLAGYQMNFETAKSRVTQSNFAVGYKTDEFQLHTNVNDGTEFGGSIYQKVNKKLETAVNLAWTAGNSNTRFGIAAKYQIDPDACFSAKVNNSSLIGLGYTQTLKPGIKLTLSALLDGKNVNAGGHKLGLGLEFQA

Kd [1]: 210 ± 15 nM
Kd [2]: 76 ± 2 nM
B1: mitoNEET (natural protein, human)
chain: RFYVKDHRNKAMINLHIQKDNPKIVHAFDMEDLGDKAVYCRCWRSKKFPFCDGAHTKHNEETGDNVGPLIIKKKET
